T1: recombinant human CD73-His extracellular domain protein (soluble dimer) (human, UniProt P21589 27-547)
T1 construct: Purified as a dimer; also called huCD73; soluble recombinant human CD73
T1 sequence: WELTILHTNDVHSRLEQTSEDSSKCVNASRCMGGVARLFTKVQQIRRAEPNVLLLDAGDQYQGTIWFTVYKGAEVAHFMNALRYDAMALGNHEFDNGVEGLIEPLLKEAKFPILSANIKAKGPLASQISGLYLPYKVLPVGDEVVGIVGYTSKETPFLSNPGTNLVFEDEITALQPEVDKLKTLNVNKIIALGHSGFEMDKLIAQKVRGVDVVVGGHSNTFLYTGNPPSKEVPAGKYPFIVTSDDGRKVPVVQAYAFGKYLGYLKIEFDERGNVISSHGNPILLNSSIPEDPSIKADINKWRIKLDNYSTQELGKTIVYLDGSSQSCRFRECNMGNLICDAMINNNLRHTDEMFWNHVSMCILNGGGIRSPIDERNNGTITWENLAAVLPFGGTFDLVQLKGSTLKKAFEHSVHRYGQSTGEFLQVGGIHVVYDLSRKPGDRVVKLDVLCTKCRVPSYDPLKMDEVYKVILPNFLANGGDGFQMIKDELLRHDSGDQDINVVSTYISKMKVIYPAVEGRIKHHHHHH

T2: human CD73 expressed at the cell surface (human, UniProt P21589 27-549)
T2 construct: GPI-anchored dimer on cells; also called huCD73; cellular CD73
T2 sequence: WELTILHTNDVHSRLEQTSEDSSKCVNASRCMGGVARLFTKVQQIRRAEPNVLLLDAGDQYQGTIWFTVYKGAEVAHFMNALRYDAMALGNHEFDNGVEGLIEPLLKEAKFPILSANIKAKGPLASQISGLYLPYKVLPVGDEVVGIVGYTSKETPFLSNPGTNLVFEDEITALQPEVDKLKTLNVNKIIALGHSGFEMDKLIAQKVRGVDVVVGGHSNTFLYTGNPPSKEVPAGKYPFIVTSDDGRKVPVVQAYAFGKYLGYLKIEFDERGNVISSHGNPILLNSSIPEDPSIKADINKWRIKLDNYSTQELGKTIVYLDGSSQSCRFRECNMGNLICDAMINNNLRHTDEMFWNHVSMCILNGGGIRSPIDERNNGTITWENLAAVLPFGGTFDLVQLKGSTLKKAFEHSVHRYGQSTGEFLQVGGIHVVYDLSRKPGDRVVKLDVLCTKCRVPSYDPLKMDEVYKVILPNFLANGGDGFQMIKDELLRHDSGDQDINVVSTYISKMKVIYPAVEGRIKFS

T3: human CD73 mutant 17 (human, UniProt P21589 27-549)
T3 construct: Transfected in HEK293T cells
T3 chain: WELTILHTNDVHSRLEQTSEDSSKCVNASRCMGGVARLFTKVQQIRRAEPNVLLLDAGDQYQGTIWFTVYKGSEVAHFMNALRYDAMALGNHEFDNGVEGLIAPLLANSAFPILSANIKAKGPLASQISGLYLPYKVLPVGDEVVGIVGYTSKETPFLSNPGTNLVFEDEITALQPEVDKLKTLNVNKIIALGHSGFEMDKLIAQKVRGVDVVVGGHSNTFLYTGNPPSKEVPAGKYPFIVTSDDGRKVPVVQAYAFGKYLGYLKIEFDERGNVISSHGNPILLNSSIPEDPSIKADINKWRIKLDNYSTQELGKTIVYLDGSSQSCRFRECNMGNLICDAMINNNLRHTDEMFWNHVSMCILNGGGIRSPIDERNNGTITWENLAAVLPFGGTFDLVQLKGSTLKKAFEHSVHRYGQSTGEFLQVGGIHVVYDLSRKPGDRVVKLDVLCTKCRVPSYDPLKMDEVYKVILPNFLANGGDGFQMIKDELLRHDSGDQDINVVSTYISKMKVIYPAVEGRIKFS


Tests used:
[1] = target: T1, recombinant human CD73-His …; assay: SPR (Biacore T100), antibody captured on Protein-A, soluble dimeric CD73 injected 1.23-300 nM, 1:1 model, bivalent affinity
Protocol: SPR measurements were performed on a Biacore T100 apparatus (Biacore GE Healthcare) at 25° C. In all Biacore experiments HBS-EP+(Biacore GE Healthcare) and NaOH 10 mM served as running buffer and regeneration buffer respectively. Sensorgrams were analyzed with Biacore T100 Evaluation software. Protein-A was purchase from (GE Healthcare). Human soluble dimeric CD73 proteins were cloned, produced and purified at Innate Pharma.
Protein-A proteins were immobilized covalently to carboxyl groups in the dextran layer on a Sensor Chip CMS. The chip surface was activated with EDC/NHS (N-ethyl-N′-(3-dimethylaminopropyl) carbodiimide hydrochloride and N-hydroxysuccinimide (Biacore GE Healthcare). Protein-A was diluted to 10 μg/ml in coupling buffer (10 mM acetate, pH 5.6) and injected until the appropriate immobilization level was reached (i.e. 2000 RU). Deactivation of the remaining activated groups was performed using 100 mM ethanolamine pH 8 (Biacore GE Healthcare).
Affinity study was carried out according to a standard Capture-Kinetic protocol recommended by the manufacturer (Biacore GE Healthcare kinetic wizard). Serial dilutions of human recombinant soluble dimeric CD73 proteins, ranging from 1.23 to 300 nM were sequentially injected over the captured anti-CD73 antibodies and allowed to dissociate for 10 min before regeneration. The entire sensorgram sets were fitted using the 1:1 kinetic binding model. Bivalent affinities and kinetic association and dissociation rate constants are shown below in Table 2 below.

[2] = target: T2, human CD73 expressed at the cell surface; assay: flow cytometry titration on MDA-MB-231 cells (endogenous CD73), median of fluorescence
Protocol: MDA-MB-231 cells are available from ATCC (reference HTB-26). 10⁵ cells resuspended in PBS/0.2% BSA/0.02% NaN3 (named “staining buffer”) are distributed into round bottom 96W-microplates. Dose-range of anti-CD73 antibodies was added to the plates and cells are incubated for 45 min at 4° C. Cells were washed three times in staining buffer by spinning plates at 400 g for 3 min at 4° C. PE-coupled goat anti-mouse or goat anti-human IgG Fc fragment secondary antibodies (Beckman Coulter) diluted in staining buffer were added to the cells and plates are incubated for 30 additional minutes at 4° C. Cells were washed three times as described above and analyzed on an Accury C6 flow cytometer equipped with an HTFC plate reader.
Median of fluorescence vs. antibodies concentration was plotted on graphs and EC50 is calculated using Graph Pad Prism program.

[3] = target: T4, cynomolgus CD73 expressed on a recombinant host cell line (cynomolgus); assay: flow cytometry titration on a cynomolgus-CD73-expressing recombinant host cell line, median of fluorescence
T4 construct: whole, on cells; also called cynoCD73

human CD73 mutant 17 = target: T3, human CD73 mutant 17; assay: flow cytometry, HEK293T transfectants
[4] = target: T2, human CD73 expressed at the cell surface; assay: flow cytometry titration on a human-CD73-expressing recombinant host cell line, median of fluorescence

| Kd [1] [nM] | EC50 (read off the curve) [2] [µg/mL] | EC50 (read off the curve) [3] [µg/mL] | binding result (human CD73 mutant 17) | EC50 (read off the curve) [4] [µg/mL] | Binder |
| --- | --- | --- | --- | --- | --- |
| 0.822 | ~0.1 | ~0.4 | no binding | ~0.4 | antibody 11E1 (antibody, human IgG1, V domains shown, Produced as chimeric human IgG1 with heavy chain N297Q (Kabat EU numbering); also called 1E11) VH: EIQLQQSGPELVKPGASVKVSCKASGYAFTSYNMYWVKQSHGKSLEWIGYIDPYNGGTSYNQKFKGKATLTVDKSSSTAYMHLNSLTSEDSAVYYCARGYGNYKAWFAYWGQGTLVTVSA VL: DAVMTQTPKFLLVSAGDRVTITCKASQSVTNDVAWYQQKPGQSPKLLIYYASNRYTGVPDRFTGSGYGTDFTFTISTVQAEDLAVYFCQQDYSSLTFGAGTKLELK |
| 0.819 | ~0.1 | ~0.4 | no binding | ~0.4 | antibody 6E1 (antibody, human IgG1, V domains shown, Produced as chimeric human IgG1 with heavy chain N297Q (Kabat EU numbering)) VH: EFQLQQSGPELVKPGASVKVSCKASGYAFTSYNMYWVKQSHGKRLEWIGYIDPYNGGSSYNQKFKGKATLTVDKSSSTAYMHLNNLTSEDSAVYYCARGYNNYKAWFAYWGQGTLVTVSA VL: SIVMTQTPKFLLVSAGDRVTITCKASQSVTNDVAWYQQKPGQSPKLLIYYASNRYTGVPDRFTGSGYGTDFTFTISTMQAEDLAVYFCQQDYSSLTFGAGTKLELK |
| 0.682 | ~0.07 | ~0.4 | no binding | ~0.6 | antibody 3C12 (antibody, human IgG1, V domains shown, Produced as chimeric human IgG1 with heavy chain N297Q (Kabat EU numbering); RTVAAP)) VH: QIQLQQSGPELVKPGASVKVSCKASGYAFASYNMNWVKQSHGKSLDWIGYIDPYNGGSSYNLTFKGKATLTVDKSSTTAYMHLNSLTSEDSAVYYCARGYGNYKAWFAYWGQGTLVTVSA VL: DVVMTQTPKFLLVSAGDRVTITCKASQSVSNDVAWYQQKPGQSPKLLIYYASTRYTGVPDRFTGSGYGTDFTFTISTVQAEDLAVYFCQQDYSSLTFGAGTKLELKR |
